The values that follow come from publication PMC5186407 (Journal of molecular biology, 2016).

One assay deals with Hsp70 NBD (Homo sapiens) (UniProt P0DMV8). The settings on record: cited from earlier work.
In assay [1] the target is Hsp27c, truncated Hsp27 with only the core α-crystallin domain (human). As to the kind of experiment: flow cytometry protein interaction assay. In general terms: A flow cytometer gives signals particle by particle.
Assay [2] has as its target Hsp27-3D, triple phospho-mimetic mutant of Hsp27 (human) (UniProt P04792). Put plainly: flow cytometry protein interaction assay.
Another assay deals with BAG3 Δ200–213 (UniProt O95817). As to the kind of experiment: ITC. A general note: Isothermal titration calorimetry measures the heat released or taken up as one component is titrated into another.
A further assay addresses BAG3 Δ87–101 (UniProt O95817). As to the kind of experiment: ITC.
Assay [3] addresses BAG3 with the first IPV motif mutated to GPG (IPV1) (UniProt O95817). Put plainly: ITC.
For a further assay, the target named is BAG3 Δ87–101 & Δ200–213 (UniProt O95817 1-575, Δ87–101 | Δ200–213, Alexa Fluor label in the FCPIA experiments). As to the kind of experiment: flow cytometry protein interaction assay.

Hsp70 NBD (Homo sapiens), sequence (P0DMV8 2-386): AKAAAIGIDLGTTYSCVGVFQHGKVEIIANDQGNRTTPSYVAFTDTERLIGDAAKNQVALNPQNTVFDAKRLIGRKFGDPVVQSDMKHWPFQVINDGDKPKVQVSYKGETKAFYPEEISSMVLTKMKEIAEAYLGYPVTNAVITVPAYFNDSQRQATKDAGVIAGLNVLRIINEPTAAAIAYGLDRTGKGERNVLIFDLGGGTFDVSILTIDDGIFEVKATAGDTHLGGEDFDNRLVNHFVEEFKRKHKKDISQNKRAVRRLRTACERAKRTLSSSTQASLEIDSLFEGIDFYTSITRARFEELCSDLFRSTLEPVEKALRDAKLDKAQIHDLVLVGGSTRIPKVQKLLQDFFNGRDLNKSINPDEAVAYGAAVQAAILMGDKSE

By Kd is commonly meant the equilibrium constant for the complex coming apart. BAG3 (from UniProt O95817): the Kd with Hsp70 NBD (Homo sapiens) is 0.01 µM.
Molecule “BAG3 Δ87–101 & Δ200–213 (from UniProt O95817 1-575) (natural protein)” had a fold weakening of the affinity against BAG3 with both IPV motifs in assay [1] greater than 25 fold. In assay [2], this molecule yielded a Kd greater than 50 µM.
For orientation: stoichiometry N means a count of units in the complex or per binding partner. “Hsp27c, truncated Hsp27 with only the core α-crystallin domain (domain or fragment)”: the stoichiometry N (with BAG3 Δ200–213; with BAG3 Δ87–101; in assay [3]) was 1 Hsp27c:BAG3 throughout.

B1: Hsp20 (HSPB6) (natural protein, human, UniProt O14558 1-160, looked up)
chain: MEIPVPVQPSWLRRASAPLPGLSAPGRLFDQRFGEGLLEAELAALCPTTLAPYYLRAPSVALPVAQVPTDPGHFSVLLDVKHFSPEEIAVKVVGEHVEVHARHEERPDEHGFVAREFHRRYRLPPGVDPAAVTSALSPEGVLSIQAAPASAQAPPPAAAK
modifications: biotin (EZ-link NHS-Biotin) in the FCPIA experiments
B1 had a Kd with BAG3 Δ87–101 & Δ200–213 greater than 50 µM.
